Data on three molecules can be found in publication PMC11796321, “Interleukin‐11 receptor is an alternative α‐receptor for interleukin‐6 and the chimeric cytokine IC7” (The Febs Journal, 2024).

B1: Hyper IL-11 (fusion protein of shIL-11R and hIL-11), Twin-Strep-tagged (other)
chain: SSPCPQAWGPPGVQYGQPGRSVKLCCPGVTAGDPVSWFRDGEPKLLQGPDSGLGHELVLAQADSTDEGTYICQTLDGALGGTVTLQLGYPPARPVVSCQAADYENFSCTWSPSQISGLPTRYLTSYRKKTVLGADSQRRSPSTGPWPCPQDPLGAARCVVHGAEFWSQYRINVTEVNPLGASTRLLDVSLQSILRPDPPQGLRVESVPGYPRRLRASWTYPASWPCQPHFLLKFRLQYRPAQHPAWSTVEPAGLEEVITDAVAGLPHAVRVSARDFLDAGTWSTWSPEAWGTPSTGGGSGGGSPGPPPGPPRVSPDPRAELDSTVLLTRSLLADTRQLAAQLRDKFPADGDHNLDSLPTLAMSAGALGALQLPGVLTRLRADLLSYLRHVQWLRRAGGSSLKTLEPELGTLQARLDRLLRRLQLLMSRLALPQPPPDPPAPPLAPPSSAWGGIRAAHAILGGLHLTLDWAVRGLLLLKTRL
B2: sgp130Fc (fusion protein of soluble hgp130 to the Fc-part of an IgG antibody) (Fc fusion, human, UniProt P40189 23-619, looked up)
chain: ELLDPCGYISPESPVVQLHSNFTAVCVLKEKCMDYFHVNANYIVWKTNHFTIPKEQYTIINRTASSVTFTDIASLNIQLTCNILTFGQLEQNVYGITIISGLPPEKPKNLSCIVNEGKKMRCEWDGGRETHLETNFTLKSEWATHKFADCKAKRDTPTSCTVDYSTVYFVNIEVWVEAENALGKVTSDHINFDPVYKVKPNPPHNLSVINSEELSSILKLTWTNPSIKSVIILKYNIQYRTKDASTWSQIPPEDTASTRSSFTVQDLKPFTEYVFRIRCMKEDGKGYWSDWSEEASGITYEDRPSKAPSFWYKIDPSHTQGYRTVQLVWKTLPPFEANGKILDYEVTLTRWKSHLQNYTVNATKLTVNLTNDRYLATLTVRNLVGKSDAAVLTIPACDFQATHPVMDLKAFPKDNMLWVEWTTPRESVKKYILEWCVLSDKAPCITDWQQEDGTVHRTYLRGNLAESKCYLITVTPVYADGPGSPESIKAYLKQAPPSKGPTVRTKKVGKNEAVLEWDQLPVDVQNGFIRNYTIFYRTIIGNETAVNVDSSHTEYTLSSLTSDTLYMVRMAAYTDEGGKDGPEFTFTTPKFAQGEIE

The target in experiment [1] is B2. Description: cell-based or functional assay.
For experiment [2], the target named is B2. Description: SPR; Biacore X100, Protein A sensor chip; sgp130Fc captured via its Fc (200-300 RU per cycle); hyper-cytokines injected 30 uL/min, 120 s, dissociation 300 s (200-0.20 nM cHIL-6, 25-0.05 nM HIL-6, 50-0.62 nM HIL-11); 1:1 binding model. As to conditions: both partners purified.
For experiment [3], the target named is B1. Description: cell-based or functional assay.
The target in experiment [4] is Hyper IL-6 (fusion protein of human sIL-6R and human IL-6), Twin-Strep-tagged (human). Description: cell-based or functional assay.
Experiment [5] addresses chimeric Hyper-cytokine IL-6/sIL-11R (cHIL-6), Twin-Strep-tagged (human, UniProt Q14626 23-317). Description: cell-based or functional assay.
Experiment [6] addresses T1, recombinant his-tagged soluble human IL-11R (human, UniProt Q14626 24-370).
T1 sequence (looked up): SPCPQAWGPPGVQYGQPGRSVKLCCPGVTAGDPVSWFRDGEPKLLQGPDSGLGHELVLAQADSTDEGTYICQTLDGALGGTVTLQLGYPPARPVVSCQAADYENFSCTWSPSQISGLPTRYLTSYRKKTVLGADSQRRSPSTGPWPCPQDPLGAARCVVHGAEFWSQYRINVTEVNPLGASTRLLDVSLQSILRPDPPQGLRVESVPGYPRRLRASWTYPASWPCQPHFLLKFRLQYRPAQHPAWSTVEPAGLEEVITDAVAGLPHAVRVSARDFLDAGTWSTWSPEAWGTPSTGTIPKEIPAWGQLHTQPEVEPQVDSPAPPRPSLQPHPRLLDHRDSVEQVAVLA
Description: cell-based or functional assay.

Experiment [7] addresses T1, recombinant his-tagged soluble human …. Description: SPR; Biacore X100, multi-cycle, NTA sensor chip; his-tagged soluble hIL-6R or hIL-11R immobilised (100-250 RU per cycle); cytokines injected 133.33 to 0.183 nM, 30 uL/min, 180 s, dissociation 800 s; 25 °C, PBS with 0.05% P20 and 50 uM EDTA; two-state reaction fit. Also on record: ka1 (two-state fit, first step) / ka2 (two-state fit, second step): unit not given here. Conditions: both partners purified.

Experiment [8] has as its target T2, recombinant his-tagged soluble human IL-6R (human, UniProt P08887 20-365).
T2 construct: soluble human IL-6 α-receptor; In functional rows this id also stands for hIL-6R expressed on Ba/F3 cells (whole receptor); the readout says so; also called sIL-6R; shIL-6R; source: bought: R&D Systems (cat. no. 10537)
T2 sequence (looked up): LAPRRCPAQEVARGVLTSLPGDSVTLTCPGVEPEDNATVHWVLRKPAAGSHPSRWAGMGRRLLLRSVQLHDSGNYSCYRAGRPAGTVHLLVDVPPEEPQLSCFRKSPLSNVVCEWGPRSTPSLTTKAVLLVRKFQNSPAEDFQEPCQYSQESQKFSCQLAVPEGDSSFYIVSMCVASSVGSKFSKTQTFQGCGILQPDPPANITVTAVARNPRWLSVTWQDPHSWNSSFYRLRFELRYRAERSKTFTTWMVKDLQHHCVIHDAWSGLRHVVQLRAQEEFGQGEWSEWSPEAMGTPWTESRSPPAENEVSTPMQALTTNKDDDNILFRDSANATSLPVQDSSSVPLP
The experiment is described as above. The arrangement: ka1 (two-state fit, first step) / ka2 (two-state fit, second step): unit not given here. As to conditions: both partners purified.

In the case of B1, the “EC50 of proliferation of Ba/F3-hgp130 cells (hgp130 on cells), 72 h” value in experiment [1] stood at 0.0578 nM. In experiment [2], the Kd turned out to be 0.397 nM, the koff stood at 0.000142 s⁻¹ and the kon came to 360000 M⁻¹ s⁻¹.

Turning to B2, the “IC50 of sgp130Fc on growth of Ba/F3-gp130 cells induced by 1.7 nM HIL-11 (blocks HIL-11 with gp130 on cells)” value in experiment [3] stood at 0.213 nM. Moreover, the “IC50 of sgp130Fc on growth of Ba/F3-gp130 cells induced by 1.7 nM HIL-6 (blocks HIL-6 with gp130 on cells)” value in experiment [4] turned out to be 0.428 nM. The “IC50 of sgp130Fc on growth of Ba/F3-gp130 cells induced by 1.7 nM cHIL-6 (blocks cHIL-6 with gp130 on cells)” value in experiment [5] stood at 0.324 nM.

B3: Twin-strep-tagged human IL-11 (ligand, UniProt P20809 22-199, looked up)
chain: PGPPPGPPRVSPDPRAELDSTVLLTRSLLADTRQLAAQLRDKFPADGDHNLDSLPTLAMSAGALGALQLPGVLTRLRADLLSYLRHVQWLRRAGGSSLKTLEPELGTLQARLDRLLRRLQLLMSRLALPQPPPDPPAPPLAPPSSAWGGIRAAHAILGGLHLTLDWAVRGLLLLKTRL
notes: human interleukin 11 (IL-11); A His-tagged hIL-11 from E. coli (hIL-11his) was used only in some Western blots of signalling, not in SPR; also called hIL-11ts; hIL-11
Consider B3, for which the “EC50 of proliferation of Ba/F3-hgp130-hIL-11R cells (hIL-11R on cells), 72 h” value in experiment [6] stood at 0.0216 nM. In experiment [7], the Kd was 0.53 nM; the “ka1 (two-state fit, first step)” value worked out at 2.3e+06; the “ka2 (two-state fit, second step)” value turned out to be 0.00454; the “kd1 (two-state fit, first step)” value turned out to be 0.00692 s⁻¹. Besides, the “kd2 (two-state fit, second step)” value in experiment [7] came to 0.000972 s⁻¹. In experiment [8], the dissociation constant Kd was found to be 58.4 nM; the “ka1 (two-state fit, first step)” value is 164000; the “ka2 (two-state fit, second step)” value is 0.0112; the “kd1 (two-state fit, first step)” value amounted to 0.0925 s⁻¹. Also, in experiment [8], the “kd2 (two-state fit, second step)” value stood at 0.00129 s⁻¹.
